Measurements reported in the Immune Epitope Database (IEDB).

Experiments:
HLA-A*01:01 = experiment: IEDB peptide-MHC binding, purified MHC/direct/fluorescence; filed as Kd, often an IC50 or EC50 that approximates it; ≥ and ≤ were set here for values at or beyond the usual limits of such assays
HLA-A*11:01 = experiment: as above
HLA-A*31:01 = experiment: as above
HLA-B*07:02 [1] = experiment: as above; details: source organism: Influenza A virus (A/equine/New York/1/1999(H3N8))
HLA-B*08:01 = experiment: as above; details: source organism: Influenza A virus (A/equine/New York/1/1999(H3N8))
HLA-B*15:01 [2] = experiment: as above; details: source organism: Influenza A virus (A/equine/New York/1/1999(H3N8))
HLA-B*15:09 [3] = experiment: as above; details: source organism: Influenza A virus(A/swine/Shandong/fNY/2003(H9N2))
HLA-B*18:01 = experiment: as above; details: source organism: Influenza A virus (A/equine/New York/1/1999(H3N8))
HLA-B*39:01 = experiment: as above
HLA-B*57:01 = experiment: as above
HLA-B*58:01 = experiment: as above
HLA-A*02:01 = experiment: IEDB peptide-MHC binding, purified MHC/competitive/fluorescence; filed as Kd, often an IC50 or EC50 that approximates it; ≥ and ≤ were set here for values at or beyond the usual limits of such assays; details: source organism: Influenza A virus H3N2
HLA-A*02:03 = experiment: as above; details: source organism: Influenza A virus H3N2
HLA-A*02:06 = experiment: as above
HLA-A*68:02 = experiment: as above; details: source organism: Influenza A virus H3N2
HLA-A*03:01 = experiment: IEDB peptide-MHC binding, purified MHC/direct/fluorescence; filed as Kd, often an IC50 or EC50 that approximates it; ≥ and ≤ were set here for values at or beyond the usual limits of such assays; details: source organism: Bacillus anthracis
HLA-B*08:02 = experiment: as above; details: source organism: Bacillus anthracis str. A0193
HLA-B*15:17 = experiment: as above; details: source organism: Bacillus anthracis
HLA-B*27:05 = experiment: as above; details: source organism: Bacillus anthracis
HLA-B*40:01 = experiment: as above; details: source organism: Bacillus anthracis
HLA-B*46:01 = experiment: as above; details: source organism: Bacillus anthracis
HLA-B*48:01 = experiment: as above; details: source organism: Bacillus anthracis
HLA-C*05:01 = experiment: as above; details: source organism: Bacillus anthracis str. A0389
HLA-A*26:01 = experiment: IEDB peptide-MHC binding, purified MHC/competitive/fluorescence; filed as Kd, often an IC50 or EC50 that approximates it; ≥ and ≤ were set here for values at or beyond the usual limits of such assays; details: source organism: Bacillus anthracis str. A0389
HLA-B*15:01 [4] = experiment: as above; details: source organism: Bacillus anthracis str. A0389
HLA-B*15:09 [5] = experiment: as above; details: source organism: Bacillus anthracis str. A0389
HLA-B*07:02 [6] = experiment: IEDB peptide-MHC binding, purified MHC/competitive/radioactivity; ≥ and ≤ were set here for values at or beyond the usual limits of such assays; details: source organism: dengue virus type 1
HLA-B*35:01 = experiment: IEDB peptide-MHC binding, purified MHC/competitive/radioactivity; filed as Kd, often an IC50 or EC50 that approximates it; ≥ and ≤ were set here for values at or beyond the usual limits of such assays; details: source organism: Dengue virus 1 Brazil/97-11/1997
[7] = source organism: Influenza A virus (A/equine/New York/1/1999(H3N8))
[8] = source organism: Bacillus anthracis

## ELVRKTRFL
HLA-A*01:01; [7]
  Kd: ≥ 20 µM
HLA-A*11:01; [7]
  Kd: ≥ 20 µM
HLA-A*31:01; [7]
  Kd: ≥ 20 µM
HLA-B*07:02 [1]
  Kd: ≥ 20 µM
HLA-B*08:01
  Kd: 1.62 µM
HLA-B*15:01 [2]
  Kd: ≥ 20 µM
HLA-B*15:09 [3]
  Kd: ≥ 20 µM
HLA-B*18:01
  Kd: ≥ 20 µM
HLA-B*39:01; source organism: Influenza A virus(A/swine/Shandong/fNY/2003(H9N2))
  Kd: ≥ 20 µM
HLA-B*57:01; [7]
  Kd: ≥ 20 µM
HLA-B*58:01; [7]
  Kd: ≥ 20 µM
HLA-A*02:01
  Kd: ≥ 20 µM
HLA-A*02:03
  Kd: ≥ 20 µM
HLA-A*02:06; source organism: Influenza A virus H3N2
  Kd: 2.88 µM
HLA-A*68:02
  Kd: 1.43 µM

## FTDNNELEF
HLA-A*01:01; [8]
  Kd: 0.002 µM
HLA-A*03:01
  Kd: ≥ 20 µM
HLA-A*11:01; [8]
  Kd: ≥ 20 µM
HLA-A*31:01; [8]
  Kd: ≥ 20 µM
HLA-B*08:02
  Kd: ≥ 20 µM
HLA-B*15:17
  Kd: 0.003 µM
HLA-B*27:05
  Kd: ≥ 20 µM
HLA-B*39:01; source organism: Bacillus anthracis str. A0193
  Kd: ≥ 20 µM
HLA-B*40:01
  Kd: ≥ 20 µM
HLA-B*46:01
  Kd: ≥ 20 µM
HLA-B*48:01
  Kd: ≥ 20 µM
HLA-B*57:01; [8]
  Kd: ≥ 20 µM
HLA-B*58:01; [8]
  Kd: 0.212 µM
HLA-C*05:01
  Kd: ≤ 0.001 µM
HLA-A*02:06; source organism: Bacillus anthracis str. A0389
  Kd: 0.0002 µM
HLA-A*26:01
  Kd: ≥ 20 µM
HLA-B*15:01 [4]
  Kd: ≥ 20 µM
HLA-B*15:09 [5]
  Kd: ≥ 20 µM

## HPASAWTLYA
HLA-B*07:02 [6]
  IC50: 0.00615 µM
HLA-B*35:01
  Kd: 0.572 µM
